According to patent US20230192845A1 (BLINK BIOMEDICAL, published 2023):

T1: human CD96 short isoform v2 expressed on CHO cells (human, UniProt P40200 22-585)
T1 construct: also called hCD96v2; CD96v2; not shown: C-terminal HA-tag
T1 sequence: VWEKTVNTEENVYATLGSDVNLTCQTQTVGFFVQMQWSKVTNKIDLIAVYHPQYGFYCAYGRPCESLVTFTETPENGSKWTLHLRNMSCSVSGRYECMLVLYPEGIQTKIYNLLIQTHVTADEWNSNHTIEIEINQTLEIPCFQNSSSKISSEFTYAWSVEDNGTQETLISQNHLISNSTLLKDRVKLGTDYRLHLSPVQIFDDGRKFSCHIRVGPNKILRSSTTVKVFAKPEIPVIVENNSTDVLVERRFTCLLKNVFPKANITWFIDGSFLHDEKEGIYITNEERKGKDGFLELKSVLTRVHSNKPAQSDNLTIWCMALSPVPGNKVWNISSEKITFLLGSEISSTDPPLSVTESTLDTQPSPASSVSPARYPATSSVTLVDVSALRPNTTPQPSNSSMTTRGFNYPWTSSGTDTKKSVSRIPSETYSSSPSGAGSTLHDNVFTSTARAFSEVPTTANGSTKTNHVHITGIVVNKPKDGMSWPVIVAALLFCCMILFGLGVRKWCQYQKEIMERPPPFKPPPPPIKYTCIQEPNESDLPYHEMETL

T2: mouse CD96 expressed on CHO cells (mouse, UniProt Q3U0X8 22-602)
T2 construct: whole, on cells; also called mCD96
T2 sequence (looked up): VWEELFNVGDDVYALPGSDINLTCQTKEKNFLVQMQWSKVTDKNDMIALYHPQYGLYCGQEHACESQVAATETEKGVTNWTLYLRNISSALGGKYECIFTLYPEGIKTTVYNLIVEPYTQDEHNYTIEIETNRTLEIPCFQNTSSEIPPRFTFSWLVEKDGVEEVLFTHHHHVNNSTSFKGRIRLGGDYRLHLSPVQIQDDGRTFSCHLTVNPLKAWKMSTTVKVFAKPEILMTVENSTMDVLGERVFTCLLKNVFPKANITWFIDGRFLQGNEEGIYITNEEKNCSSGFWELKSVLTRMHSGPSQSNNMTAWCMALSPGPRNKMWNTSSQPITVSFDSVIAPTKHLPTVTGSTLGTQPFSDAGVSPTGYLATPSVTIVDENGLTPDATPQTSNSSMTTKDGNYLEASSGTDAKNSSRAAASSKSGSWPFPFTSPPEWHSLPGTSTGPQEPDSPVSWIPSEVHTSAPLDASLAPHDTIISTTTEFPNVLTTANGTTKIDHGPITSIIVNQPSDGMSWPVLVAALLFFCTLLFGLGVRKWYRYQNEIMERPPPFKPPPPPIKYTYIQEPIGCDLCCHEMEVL

T3: rhesus CD96 transiently expressed on CHO cells (rhesus, UniProt P40200 22-585 (human entry))
T3 construct: also called rhesus CD96, short isoform
T3 chain: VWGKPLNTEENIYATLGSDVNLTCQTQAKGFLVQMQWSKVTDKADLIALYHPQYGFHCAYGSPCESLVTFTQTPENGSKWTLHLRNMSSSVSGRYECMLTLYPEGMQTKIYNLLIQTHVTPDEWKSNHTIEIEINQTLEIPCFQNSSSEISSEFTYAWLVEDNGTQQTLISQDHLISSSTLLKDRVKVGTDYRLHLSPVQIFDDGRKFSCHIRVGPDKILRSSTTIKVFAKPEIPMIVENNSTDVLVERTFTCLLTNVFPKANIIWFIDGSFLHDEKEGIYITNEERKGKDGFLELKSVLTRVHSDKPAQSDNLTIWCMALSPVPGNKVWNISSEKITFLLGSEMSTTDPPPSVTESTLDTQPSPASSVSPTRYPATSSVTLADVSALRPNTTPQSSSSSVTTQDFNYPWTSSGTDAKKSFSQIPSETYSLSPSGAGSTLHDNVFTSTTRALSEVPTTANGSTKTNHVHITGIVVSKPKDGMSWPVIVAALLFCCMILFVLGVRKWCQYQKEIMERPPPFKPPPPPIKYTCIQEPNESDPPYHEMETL

B1: BL006-19-29G5-29K1 (antibody, V domains shown)
VH: QVTLKESGPGILQSSQTLSLTCSFSGFSLSTFGMGVSWIRKPSGKGLEWLAHIFWDDDKRYNPSLKSRLTISKDTSSNQVFLMINSMDIADTATYYCTRGSNWFAYWGQGTLVTVSA
VL: DIVLTQSPASLAVSLGQRATISCRASESVDSYGNSFMHWYQQKPGQPPKLLIYRASNLESGIPARFSGSGSRTDFTLTINPVEADDVATYYCQQSNEDPLTFGAGTKLELK
notes: Recombinant mIgG2a/kappa (also made as mIgG2a-D265A); also called candidate NO 14
B2: BL006-8-3G9-3K4 (antibody, V domains shown)
VH: QVQLQQSGAELVRPGASVKLSCKASGYRFTDYEMEWVKQTPVHGLEWIGAIDPETGGTAYNQKFKGKATVTADKSSRTAYMELRSLTSEDSAVYYCTREGDGSYGAYWGQGTLVTVSA
VL: DVMMTQTPLSLPVSLGDQASISCRSSQSIVYSNGNTYLEWYLQKPGQSPKLLMYKVSNRFSGVPDRFSGSGSGTDFTLKISRVEAEDLGVYYCFQGSHAPWTFGGGTKLEIK
notes: Recombinant mIgG2a/kappa (also made as mIgG2a-D265A); also called BL006-8-3G9-3K4 #6; candidate NO 4
B3: BL006-19-190G4-190K6 (antibody, V domains shown)
VH: EVQLVESGGGLVQPGGSLKLSCAASGFTFSNYGMSWVRQTPDKRLELVATINSNGGSTYYPDSVKGRFTISRDNAKNTLYLQMSSLKSEDTAMYYCTKRGAWYFDVWGTGTTVTVSS
VL: DIQMTQSSSSFSVSLGDRVTITCKASEDIYNRLAWYQQKPGNAPRLLISSATSLETGVSSRFSGSGSGKDYTLSITSLQTEDVATYYCQQYWTTPTWTFGGGTKLEIK
notes: Recombinant mIgG2a/kappa (also made as mIgG2a-D265A); also called candidate NO 16
B4: BL006-19-14G3-14K1 (antibody, V domains shown)
VH: QVTLKESGPGILQPSQTLSLTCSFSGFSLDTFGMGVGWIRQSSGKGLEWLAHIWWDDDKFYNPALKSRLTVSKDTSKNQVFLKIANVDTADTATYYCAHYYGSLSFDVWGTGTTVTVSS
VL: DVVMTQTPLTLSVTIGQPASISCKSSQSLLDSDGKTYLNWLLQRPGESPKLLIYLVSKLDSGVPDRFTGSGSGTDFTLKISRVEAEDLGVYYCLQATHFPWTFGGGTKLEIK
notes: Recombinant mIgG2a/kappa (also made as mIgG2a-D265A); also called BL006-19-14G3-14K1 #8; candidate NO 6

biological target: T1, human CD96 short isoform v2 expressed …; assay: FCM on hCD96v2-CHO cells
Procedure: FIG. 6: Binding profiles of anti-hCD96 antibodies on human CD96-transfected CHO cells (hCD96v2, short isoform). CHO cells expressing hCD96v2 were incubated with serial dilution of the indicated mIgG1 or mIgG2a anti-CD96 or isotype control antibodies. […] The results are expressed as the difference of mean fluorescence intensity (delta MFI) between cells stained with antibodies and cells without antibodies. Dose response curves were obtained from GraphPad prism software using a non-linear regression fit with a variable slope model (4 parameters). To simplify the reading, results from the various anti-hCD96 candidates are shown on 4 different panels.
The capacity of the identified mouse anti-CD96 antibodies to recognize the cell membrane expressed human CD96 was further analyzed by flow cytometry (FCM) by using CHO cells stably transfected with the CD96 short isoform v2 (CD96v2; Genbank accession number NM_005816, flanked in C-terminus with HA-tag) (SEQ ID NO: 268).
Mouse anti-CD96 antibodies and isotype control antibodies were incubated at various concentrations from 10 μg/mL to 4.6 ng/mL with CHO cells expressing human CD96 at +4° C. for 30 minutes. […] The differences between the mean fluorescence intensity (MFI) obtained for each of the antibody concentration and the intensity obtained in absence of primary antibody (delta-MFI), were calculated and plotted against the concentrations of antibodies.

| Binder | EC50 [nM] | Maximum binding (delta MFI) |
| --- | --- | --- |
| B1 | 2.98 | 753000 |
| B2 | 4.68 | 235000 |
| B3 | 3.39 | 711000 |
| B4 | 3.1 | 694000 |

biological target: T1, human CD96 short isoform v2 expressed …; assay: FCM, inhibition of hCD155-Fc binding to hCD96v2-CHO cells; relative IC50
Procedure: (§1) All candidates except BL006-2-19 that bound very weakly on hCD96v2 by FCM were tested for their capacity to inhibit the binding of human CD155 to hCD96v2 stably expressed on CHO cells. Human CD96-transfected CHO cells (3×10⁵ cells/well of 96-well plate) were incubated at +4° C. for 30 minutes with serial dilutions of anti-CD96 antibodies or isotype control antibody (in mIgG2a or mIgG2aD265A format) in the presence of 4 μg/mL of biotinylated hCD155-Fc (produced and biotinylated at BliNK).
(§2) % inhibition=(1−(MFI_wAb&CD155−MFI_CHO)/(MFI_wCD155−MFI_CHO))×100, where MFI_wAb&CD155 is the Mean Intensity Fluorescence (MFI) obtained with the hCD96-CHO cells incubated with the tested antibody and hCD155-hFc; MFI_CHO is the MFI obtained in the absence of hCD155 and mAbs; and MFI_wCD155 is the fluorescence with hCD155 but without pre-incubation with antibody (0% CD155 binding inhibition). The % of inhibition was plotted against antibody concentration and the IC50 values were calculated by using a nonlinear regression analysis model of the GraphPad Prism software.

| Binder | IC50 [nM] |
| --- | --- |
| B1 | 5.24 |
| B4 | 2.67 |

biological target: T1, human CD96 short isoform v2 expressed …; assay: FCM, inhibition of hCD155-Fc binding to hCD96v2-CHO cells
Procedure: as §1, §2

| Binder | Maximal Inhibition Capacity (%) | IC50 [nM] |
| --- | --- | --- |
| B1 | 43.1 |  |
| B2 | < 5 |  |
| B3 | 98.1 | 11.5 |
| B4 | 41.4 |  |

biological target: T2, mouse CD96 expressed on CHO cells; assay: FCM on CHO cells expressing mouse CD96
From the text: (§3) The capacity of the identified mouse anti-human CD96 antibodies to recognize the CD96 protein from other species was further analyzed by flow cytometry by using CHO cells expressing the mouse or the rhesus CD96. The expression of the species-specific CD96 on CHO cell surface was confirmed by using staining with appropriate anti-CD96 antibodies and flow cytometry on non-fixed cells. The rat anti-mCD96 antibody clone #630612 (R&D Systems) and the candidate BL006-9-1 (positive by ELISA on rhesus CD96) were used to confirm the expression of rhesus CD96, while the clone 6A6 (rat IgG2a, e-Bioscience) was used to verify the expression of mouse CD96.
(§4) Mouse anti-CD96 antibodies and isotype control antibodies were incubated at 10 or 1 μg/mL with CHO cells expressing different CD96 species at +4° C. for 30 minutes.

| Binder | binding result |
| --- | --- |
| B1 | no binding (tested: 1 and 10 µg/mL) |
| B2 | no binding (tested: 1 and 10 µg/mL) |
| B3 | no binding (tested: 1 and 10 µg/mL) |
| B4 | no binding (tested: 1 and 10 µg/mL) |

Biological target: T3, rhesus CD96 transiently expressed on …
Assay: flow cytometry on CHO cells transiently expressing rhesus CD96; antibody at 1 (thin line) and 10 µg/ml (thick dashed line), filled grey = isotype control
Procedure: FIG. 7: Binding profiles of anti-CD96 antibodies on CHO cells transfected with rhesus CD96. Anti-CD96 antibodies or the corresponding isotype control mAbs were tested for their capacity to recognize rhesus CD96 transiently expressed on CHO cells by flow cytometry. Each histogram represents the overlay of the fluorescence intensity obtained for each antibody tested at 1 (black line) and 10 μg/ml (thick dashed black line) and compared to the fluorescence obtained with an isotypic control (filled grey histogram).
as §3, §4

| Binder | binding result |
| --- | --- |
| B1 | binds |
| B2 | no binding (tested: 10 µg/ml) |
| B3 | no binding (tested: 10 µg/ml) |
| B4 | binds |
